From PMC12291137

Key:
[1] = molecular target: substrate B with the designed M13 variant M13-3 (SpyCatcher-M13-3-LPETG-SpyTag(DA)); test: ITC; CaM (200 μM) titrated into B or P (18 μM); the paper calls K_a(c) an apparent binding constant
[2] = molecular target: substrate B with the designed M13 variant M13-2 (SpyCatcher-M13-2-LPETG-SpyTag(DA)); test: as above
[3] = molecular target: substrate B (SpyCatcher-M13-LPETG-SpyTag(DA)), with the original M13 (M13-1); test: kinetics of the covalent SpyTag-SpyCatcher reaction by SDS-PAGE densitometry + LC-MS of the product; A and B mixed 1:1 (10 μM each) with 0.1 equiv of SrtA or C, Tris-HCl buffer, pH 8.0, 10 mM CaCl2, 37 °C

Row | Substance | Ka [1] | Ka [2] | k AB(c), second-order rate constant of the covalent SpyTag-SpyCatcher reaction in the catalyzed cascade (with C) [3] | k AB(s), second-order rate constant of the covalent SpyTag-SpyCatcher reaction in the spontaneous cascade (with SrtA) [3]
1 | calmodulin (CaM) (from UniProt P0DP23 1-149) (natural protein) | < 100 M⁻¹ | 20000 M⁻¹ |  | 
2 | substrate A (GGG-SpyTag-YFP) |  |  | 90 M^–1 s^–1 | 67 M^–1 s^–1
